Reference: publication PMC5842376

Target: ISCU(M108I) (human) (UniProt Q9H1K1)
Assay: ITC

- Kd: 2.6 µM
Substance: human cysteine desulfurase complex (NIA)2, [NFS1]2:[ISD11]2:[Acp]2 (from UniProt Q9HD34 1-91; P0A6A8 1-78)
